System: mutated PcrV
Assay: Epitope mapping: ELISA binding to alanine-scanning mutated PcrV
Design: species or system P. aeruginosa
Description: Using the discovery studio software, the predicted binding sites on PcrV for 7B1 and the optimized antibodies were identified, and the amino acid residues within the binding sites and in proximity to the binding sites were selected and subjected to alanine scanning. Subsequently, PcrV proteins carrying these selected mutations were expressed. The binding affinity of 7B1-IgG1 for each mutated PcrV protein was analyzed using ELISA. FIGS. 14A-14D show the ELISA binding curves of the antibodies for mutated PcrV, where mutation positions were according to sequence of SEQ ID NO: 71. As used herein, PcrV represents a His-tagged wild-type P. aeruginosa PcrV (PcrV-6His). Mutations at various positions of the amino acid sequence of the wild type PcrV were generated using alanine scanning as described above.

B1: 7B1: optimized anti-PcrV mAb clone; VH SEQ ID NO: 62, VL SEQ ID NO: 67 (antibody, V domains shown)
VH: EVQLLESGGGLVQPGGSLRLSCTASGFTFSDNYMSWVRQAPGKGLDWVSVISESGGSTNYADSVKGRFSTSRDNSKSTLYLDMNSLRAEDTAIYYCAKGRFSTLSSHFFRAVYGMDVWGQGTAVTVSS
VL: DIQLTQSPSSLSASVGDRVTITCRASQGISSYLAWYQQKPGKAPKLLIYAASTLQSGVPSRFSGSGSGTDFTLTISSLQPEDFATYYCQQLSSYPLTFGGGTKVEIK
effect of PcrV mutation at position D165 on binding (FIG. 14C): affected binding | effect of PcrV mutation at position Q160 on binding (FIG. 14C): significantly affected binding | effect of PcrV mutation at position D170 on binding (FIG. 14D): affected binding | effect of PcrV mutation at position D173 on binding (FIG. 14D): affected binding | effect of PcrV mutation at position S202 on binding (FIG. 14D): affected binding | effect of PcrV mutation at position T175 on binding (FIG. 14D): affected binding
